The record followed here is patent US20220169997.

Data set [1] relates to PR402: SP(HSA)-PTEN-L-HSA-6xHis.
In data set [2] the test system is PR405: SP(HSA)-PTEN-L-MMP2/9-HSA-6xHis.
In data set [3] the test system is PR406: SP(HSA)-PTEN-L-cathepsin B-HSA-6xHis.
For data set [4], the system named is PR408: SP(HSA)-PTEN-L-cathepsinB**-HSA-6xHis.
Data set [5] relates to PR407: SP(HSA)-PTEN-L-cathepsin B*-HSA-6xHis.

Sequence of Recombinant active MMP2 protease (Enzo cat. #BML-SE237-0010) (chain, as listed by the source): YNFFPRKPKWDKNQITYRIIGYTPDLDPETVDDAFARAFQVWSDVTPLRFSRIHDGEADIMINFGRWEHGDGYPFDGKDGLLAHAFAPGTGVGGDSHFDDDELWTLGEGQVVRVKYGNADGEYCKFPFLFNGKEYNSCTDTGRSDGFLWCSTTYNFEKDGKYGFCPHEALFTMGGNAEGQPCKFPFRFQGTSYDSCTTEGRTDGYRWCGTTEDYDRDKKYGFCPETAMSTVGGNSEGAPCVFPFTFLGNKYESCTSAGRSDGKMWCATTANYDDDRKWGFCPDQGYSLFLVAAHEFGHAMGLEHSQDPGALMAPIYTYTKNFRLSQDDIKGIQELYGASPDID

Active CATSB (BioVision #7580-5): the “in vitro cleavage of the fusion in CHO-3E7 supernatant, WB with F-1 anti-PTEN (no cleavage)” value in data set [1] was “PR402 was not appreciably cleaved by either recombinant MMP2 or CATSB”. For the same substance, the “in vitro cleavage of the fusion in CHO-3E7 supernatant (0.3 µg/ml CATSB), WB with F-1 anti-PTEN (no cleavage)” value in data set [2] is recorded as “PR405 (SEQ ID NO:129; cDNA SEQ ID NO:157) was not cleaved by CATSB”; in data set [3] it was “though it did not cleave PR406 (SEQ ID NO:130; cDNA SEQ ID NO:158)”.
For “Recombinant active MMP2 protease (Enzo cat. #BML-SE237-0010)”, the “in vitro cleavage of the fusion in CHO-3E7 supernatant, WB with F-1 anti-PTEN (no cleavage)” value was “PR402 was not appreciably cleaved by either recombinant MMP2 or CATSB” in data set [1], “MMP2 did however cleave its consensus site (SEQ ID NO:165) on PR405 only” in data set [4], “MMP2 did however cleave its consensus site (SEQ ID NO:165) on PR405 only” in data set [5] and “MMP2 did however cleave its consensus site (SEQ ID NO:165) on PR405 only” in data set [3]. Further, in data set [2], the “in vitro cleavage of the fusion in CHO-3E7 supernatant (20 nM MMP2, 0/4/21 h), WB with F-1 anti-PTEN” value is recorded as “MMP2 did however cleave its consensus site (SEQ ID NO:165) on PR405 only; this cleavage released a PTEN-L-like fragment (˜70 KDa)”.
